Target: Rad18 S471A;Rad6 (hHR6B) (Homo sapiens;Homo sapiens, UniProt Q9NS91;P63146 1-495;1-152, S471A|)
Assay: EMSA, competition

Chain of Rad18 S471A;Rad6 (hHR6B) (Q9NS91 whole entry S471A, chain 1 of 2): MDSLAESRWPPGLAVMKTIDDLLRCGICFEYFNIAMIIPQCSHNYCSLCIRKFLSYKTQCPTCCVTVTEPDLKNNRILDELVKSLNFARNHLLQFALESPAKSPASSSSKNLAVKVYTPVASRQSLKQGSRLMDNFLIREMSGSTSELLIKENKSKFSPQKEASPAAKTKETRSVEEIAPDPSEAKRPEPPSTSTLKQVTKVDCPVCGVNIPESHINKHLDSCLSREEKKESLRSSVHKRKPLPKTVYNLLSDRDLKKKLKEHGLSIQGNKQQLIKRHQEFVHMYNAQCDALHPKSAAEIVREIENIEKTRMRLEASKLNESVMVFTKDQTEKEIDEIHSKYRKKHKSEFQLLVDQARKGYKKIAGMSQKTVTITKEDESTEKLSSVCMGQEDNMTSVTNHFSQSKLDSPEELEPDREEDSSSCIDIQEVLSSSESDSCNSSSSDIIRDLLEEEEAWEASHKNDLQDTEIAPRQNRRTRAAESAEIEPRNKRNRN
Chain of Rad18 S471A;Rad6 (hHR6B) (P63146 whole entry, chain 2 of 2): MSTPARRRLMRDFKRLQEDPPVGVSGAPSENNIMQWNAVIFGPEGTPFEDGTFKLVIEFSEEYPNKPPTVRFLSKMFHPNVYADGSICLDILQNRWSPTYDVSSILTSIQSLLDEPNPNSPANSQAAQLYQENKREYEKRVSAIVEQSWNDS

Q: Does TTTTTTTTTTTTTTTTTTTTTTTTTTTTTTTTTTT (ssDNA) [35T] bind?
A: Result: binds

Reference: article PMC2034485
